Reference: patent US20240209096A1 (INVETX, published 2024)
Where a chain is given by its changes, count along the chain named. Names and notes keep the numbering of the source. Blank lines part the entries; values can stand above or below the binder they belong to.

Experiments:
[1] = molecular target: T1, canine FcRn (soluble large subunit p51 isoform X2 with 6xHis-tag, co-expressed with canine … (canine)); assay: SPR, IgG on protein L chip, FcRn in flow, pH 5.9, 1:1 fit
T1 construct: Heterodimer made by co-expression in CHO cells, purified on HISTRAP FF, >95% pure by SEC; Both entries hold a 19-residue signal peptide at the N-terminus that should be removed (residues 1-19); also called FcRn complex
T1 chain: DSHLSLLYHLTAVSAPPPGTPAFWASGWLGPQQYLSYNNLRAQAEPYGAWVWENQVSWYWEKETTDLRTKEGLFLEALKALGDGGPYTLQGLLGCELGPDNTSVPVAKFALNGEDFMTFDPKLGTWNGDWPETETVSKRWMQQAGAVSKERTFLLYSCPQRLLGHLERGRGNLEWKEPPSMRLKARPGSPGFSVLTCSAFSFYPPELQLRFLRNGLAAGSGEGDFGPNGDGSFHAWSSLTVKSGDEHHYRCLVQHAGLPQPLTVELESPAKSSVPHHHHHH
T1 b2m: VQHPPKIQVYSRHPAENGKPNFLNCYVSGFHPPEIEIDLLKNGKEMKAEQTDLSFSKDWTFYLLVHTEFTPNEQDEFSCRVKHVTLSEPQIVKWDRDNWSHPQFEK
Method: (§1) The canine FcRn binding experiments at pH 5.9 and pH 7.4 were completed on a BIACORE™ T200 instrument. A Series S Protein L Sensor chip (Cytiva, Cat. No. BR29205137) was used to capture the antibody variants via the kappa (κ) light chain. The canine variants were captured onto the protein L chip at a flow rate of 10 μL/min for 60 seconds. Approximately 250 RUs of the variants were captured. For the low pH binding condition, 1×PBX-P+ (Cytiva, Cat. No. 28995084) was adjusted to pH 5.9. The canine FcRn was flowed over the sensor chip at 30 μL/min for 120 seconds contact time and 600 seconds dissociation time. Regeneration of the flow cells was completed by flowing over 10 mM glycine, pH 1.7 at 30 μL/min for 30 seconds. The data were evaluated by the BIACORE™ T200 Evaluation software (version 3.2.1) by fitting to a 1:1 kinetic interaction model.

[2] = molecular target: T1, canine FcRn (soluble large subunit p51 …); assay: SPR, IgG on protein L chip, FcRn in flow, pH 5.9, kinetic data
Method: as §1

[3] = molecular target: T1, canine FcRn (soluble large subunit p51 …); assay: SPR, IgG on protein L chip, FcRn in flow, pH 7.4, steady state fit
Method: as §1
A subset of the Fc variants was tested for binding to canine FcRn at pH 7.4. For these experiments, 1×PBX-P+ (Cytiva, Cat. No. 28995084) was adjusted to pH 7.4. […] In addition, the pH 7.4 data were evaluated by the BIACORE™ T200 Evaluation software (version 3.2.1) by fitting to steady state affinity model. The kinetic binding data for the variants at pH 7.4 along with the binding data at pH 5.9 for these variants are shown in Table 7 below.

B2: IgG with canine IgGB Fc variant L252M, A426Y (antibody)
heavy: EVQLVESGGDLVAPSQSLSITCTVSGMSLTSNSISWVRQPPGRGLEWLGTIWSNGGTDYTDAVKGRFTISRDNAKNTVYLQMNSLRAEDTAMYYCAQIYYYDADYLHWYFDFWGQGTLVTVSSASTTAPSVFPLAPSCGSTSGSTVALACLVSGYFPEPVTVSWNSGSLTSGVHTFPSVLQSSGLYSLSSMVTVPSSRWPSETFTCNVAHPASKTKVDKPVPKRENGRVPRPPDCPKCPAPEAAGGPSVFIFPPKPKDTLMIARTPEVTCVVVDLDPEDPEVQISWFVDGKQMQTAKTQPREEQFNGTYRVVSVLPIGHQDWLKGKQFTCKVNNKALPSPIERTISKARGQAHQPSVYVLPPSREELSKNTVSLTCLIKDFFPPDIDVEWQSNGQQEPESKYRTTPPQLDEDGSYFLYSKLSVDKSRWQRGDTFICYVMHEALHNHYTQESLSHSPG
light: EIVMTQSPASLSASQEEKVTITCRASEGISNNLAWYQQKPGQAPKLLIHATSSLQTGVPSRFSGSGSGTDFTLTISSLQPEDFATYYCQQGYQFPLTFGQGTKVEIKRNDAQPAVYLFQPSPDQLHTGSASVVCLLNSFYPKDINVKWKVDGVIQDTGIQESVTEQDKDSTYSLSSTLTMSSTEYLSHELYSCEITHKSLPSTLIKSFQRSECQRVD
notes: Full chains; canine IgGB constant domain with MALA mutations; variable domains of WO 2023/97275
Kd [1]: 57.4 nM
koff [1]: 0.0581 s⁻¹
kon [1]: 1.01e+06 M⁻¹ s⁻¹

B3: IgG with canine IgGB Fc variant L252M, A426H (antibody)
heavy: B2 heavy with Y437H
light: B2 light
notes: as for B2
Kd [1]: 37 nM
koff [1]: 0.065 s⁻¹
kon [1]: 1.76e+06 M⁻¹ s⁻¹

B4: IgG with canine IgGB Fc variant N434H, T286F (antibody)
heavy: B2 heavy with M261L, T295F, Y437A, N445H
light: B2 light
notes: as for B2
Kd [2]: 14.4 nM
koff [2]: 0.0361 s⁻¹
kon [2]: 2.52e+06 M⁻¹ s⁻¹
Kd [3]: 2370 nM
Kd [1]: 14.4 nM
koff [1]: 0.0361 s⁻¹
kon [1]: 2.52e+06 M⁻¹ s⁻¹

B6: IgG with canine IgGB Fc variant N434H (antibody)
heavy: B2 heavy with M261L, Y437A, N445H
light: B2 light
notes: as for B2
Kd [2]: 55.3 nM
koff [2]: 0.097 s⁻¹
kon [2]: 1.75e+06 M⁻¹ s⁻¹
Kd [3]: 5400 nM
Kd [1]: 55.3 nM
koff [1]: 0.097 s⁻¹
kon [1]: 1.75e+06 M⁻¹ s⁻¹

B7: IgG with canine IgGB Fc variant L252Y, A426L (antibody)
heavy: B2 heavy with M261Y, Y437L
light: B2 light
notes: as for B2
Kd [2]: 6.41 nM
koff [2]: 0.012 s⁻¹
kon [2]: 1.87e+06 M⁻¹ s⁻¹
Kd [3]: 713 nM
Kd [1]: 6.41 nM
koff [1]: 0.012 s⁻¹
kon [1]: 1.87e+06 M⁻¹ s⁻¹

B8: IgG with canine IgGB Fc variant N434H, T286W (antibody)
heavy: B2 heavy with M261L, T295W, Y437A, N445H
light: B2 light
notes: as for B2
Kd [2]: 11.5 nM
koff [2]: 0.0321 s⁻¹
kon [2]: 2.78e+06 M⁻¹ s⁻¹
Kd [3]: 2070 nM
Kd [1]: 11.5 nM
koff [1]: 0.0321 s⁻¹
kon [1]: 2.78e+06 M⁻¹ s⁻¹

B9: IgG with canine IgGB Fc variant L252M, T286F (antibody)
heavy: B2 heavy with T295F, Y437A
light: B2 light
notes: as for B2
Kd [1]: 71.8 nM
koff [1]: 0.0937 s⁻¹
kon [1]: 1.31e+06 M⁻¹ s⁻¹

B11: IgG with canine IgGB Fc variant L252Y (antibody)
heavy: B2 heavy with M261Y, Y437A
light: B2 light
notes: as for B2
Kd [2]: 43.5 nM
koff [2]: 0.0491 s⁻¹
kon [2]: 1.13e+06 M⁻¹ s⁻¹
Kd [3]: 4440 nM
Kd [1]: 43.5 nM
koff [1]: 0.0491 s⁻¹
kon [1]: 1.13e+06 M⁻¹ s⁻¹

B13: IgG with canine IgGB Fc variant N434H, A426L (antibody)
heavy: B2 heavy with M261L, Y437L, N445H
light: B2 light
notes: as for B2
Kd [2]: 18.9 nM
koff [2]: 0.0492 s⁻¹
kon [2]: 2.61e+06 M⁻¹ s⁻¹
Kd [3]: 2030 nM
Kd [1]: 18.9 nM
koff [1]: 0.0492 s⁻¹
kon [1]: 2.61e+06 M⁻¹ s⁻¹

B16: IgG with canine IgGB Fc variant L252Y, T286L (antibody)
heavy: B2 heavy with M261Y, T295L, Y437A
light: B2 light
notes: as for B2
Kd [2]: 18.2 nM
koff [2]: 0.0237 s⁻¹
kon [2]: 1.31e+06 M⁻¹ s⁻¹
Kd [3]: 2620 nM
Kd [1]: 18.2 nM
koff [1]: 0.0237 s⁻¹
kon [1]: 1.31e+06 M⁻¹ s⁻¹

B17: IgG with canine IgGB Fc variant L252M, T286Y (antibody)
heavy: B2 heavy with T295Y, Y437A
light: B2 light
notes: as for B2
Kd [1]: 66.6 nM
koff [1]: 0.0822 s⁻¹
kon [1]: 1.24e+06 M⁻¹ s⁻¹

B19: IgG with canine IgGB Fc variant L252Y, T286W (antibody)
heavy: B2 heavy with M261Y, T295W, Y437A
light: B2 light
notes: as for B2
Kd [1]: 9.82 nM
koff [1]: 0.0203 s⁻¹
kon [1]: 2.07e+06 M⁻¹ s⁻¹

B20: IgG with canine IgGB Fc variant L252M, T286W (antibody)
heavy: B2 heavy with T295W, Y437A
light: B2 light
notes: as for B2
Kd [1]: 64.5 nM
koff [1]: 0.0912 s⁻¹
kon [1]: 1.42e+06 M⁻¹ s⁻¹

B21: IgG with canine IgGB Fc variant N434H, A426F (antibody)
heavy: B2 heavy with M261L, Y437F, N445H
light: B2 light
notes: as for B2
Kd [2]: 11.8 nM
koff [2]: 0.0296 s⁻¹
kon [2]: 2.5e+06 M⁻¹ s⁻¹
Kd [3]: 1380 nM
Kd [1]: 11.8 nM
koff [1]: 0.0296 s⁻¹
kon [1]: 2.5e+06 M⁻¹ s⁻¹

B22: IgG with canine IgGB Fc variant L252Y, T286Y (antibody)
heavy: B2 heavy with M261Y, T295Y, Y437A
light: B2 light
notes: as for B2
Kd [1]: 10.2 nM
koff [1]: 0.018 s⁻¹
kon [1]: 1.76e+06 M⁻¹ s⁻¹

B23: IgG with canine IgGB Fc variant L252Y, T286F (antibody)
heavy: B2 heavy with M261Y, T295F, Y437A
light: B2 light
notes: as for B2
Kd [1]: 10.8 nM
koff [1]: 0.0193 s⁻¹
kon [1]: 1.79e+06 M⁻¹ s⁻¹

Further binders by falling Kd [1], results first:

Kd [1]: 102 nM
koff [1]: 0.111 s⁻¹
kon [1]: 1.09e+06 M⁻¹ s⁻¹
B5: IgG with canine IgGB Fc variant L252M, A426L (antibody)
heavy: B2 heavy with Y437L
light: B2 light
notes: as for B2

Kd [1]: 90 nM
koff [1]: 0.111 s⁻¹
kon [1]: 1.23e+06 M⁻¹ s⁻¹
B15: IgG with canine IgGB Fc variant L252M, T286L (antibody)
heavy: B2 heavy with T295L, Y437A
light: B2 light
notes: as for B2

Kd [1]: 40.7 nM
koff [1]: 0.00335 s⁻¹
kon [1]: 82400 M⁻¹ s⁻¹
B1: IgG with canine IgGB Fc variant L252M (antibody)
heavy: B2 heavy with Y437A
light: B2 light
notes: as for B2

Kd [2]: 21.3 nM
koff [2]: 0.0518 s⁻¹
kon [2]: 2.44e+06 M⁻¹ s⁻¹
Kd [3]: 3450 nM
Kd [1]: 21.3 nM
koff [1]: 0.0518 s⁻¹
kon [1]: 2.44e+06 M⁻¹ s⁻¹
B14: IgG with canine IgGB Fc variant N434H, T286L (antibody)
heavy: B2 heavy with M261L, T295L, Y437A, N445H
light: B2 light
notes: as for B2

Kd [2]: 14.5 nM
koff [2]: 0.0406 s⁻¹
kon [2]: 2.79e+06 M⁻¹ s⁻¹
Kd [3]: 1790 nM
Kd [1]: 14.5 nM
koff [1]: 0.0406 s⁻¹
kon [1]: 2.79e+06 M⁻¹ s⁻¹
B18: IgG with canine IgGB Fc variant N434H, A426W (antibody)
heavy: B2 heavy with M261L, Y437W, N445H
light: B2 light
notes: as for B2

Kd [2]: 10.9 nM
koff [2]: 0.0252 s⁻¹
kon [2]: 2.31e+06 M⁻¹ s⁻¹
Kd [3]: 1050 nM
Kd [1]: 10.9 nM
koff [1]: 0.0252 s⁻¹
kon [1]: 2.31e+06 M⁻¹ s⁻¹
B12: IgG with canine IgGB Fc variant N434H, A426Y (antibody)
heavy: B2 heavy with M261L, N445H
light: B2 light
notes: as for B2

Kd [2]: 3.76 nM
koff [2]: 0.00598 s⁻¹
kon [2]: 1.59e+06 M⁻¹ s⁻¹
Kd [3]: 388 nM
Kd [1]: 3.76 nM
koff [1]: 0.00598 s⁻¹
kon [1]: 1.59e+06 M⁻¹ s⁻¹
B10: IgG with canine IgGB Fc variant L252Y, A426H (antibody)
heavy: B2 heavy with M261Y, Y437H
light: B2 light
notes: as for B2
